Measurements as given in US20240018252A1 (Pfizer, published 2024).

T1: human BCMA (human, UniProt Q02223 1-54)
T1 construct: also called huBCMA; hBCMA
T1 sequence: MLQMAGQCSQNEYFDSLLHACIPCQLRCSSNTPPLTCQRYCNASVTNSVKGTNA

B1: L3.PY/L1.AH/H2.QR (antibody, V domains shown)
VH: EVQLLESGGGLVQPGGSLRLSCAASGFTFGSYAMTWVRQAPGKGLEWVSAISGSGGNTFYADQRKGRFTISRDNSKNTLYLQMNSLRAEDTAVYYCARVSPIASGMDYWGQGTLVTVSS
VL: EIVLTQSPGTLSLSPGERATLSCRASQSVSAHYLAWYQQKPGQAPRLLIYGASSRATGIPDRFSGSGSGTDFTLTISRLEPEDFAVYYCQHYPYPPSFTFGQGTKVEIK
notes: IgG in the assay
B2: L3.PY/L1.AH/H3.AE (antibody, V domains shown)
VH: EVQLLESGGGLVQPGGSLRLSCAASGFTFGSYAMTWVRQAPGKGLEWVSAISGSGGNTFYADSVKGRFTISRDNSKNTLYLQMNSLRAEDTAVYYCARVSPIAAEMDYWGQGTLVTVSS
VL: EIVLTQSPGTLSLSPGERATLSCRASQSVSAHYLAWYQQKPGQAPRLLIYGASSRATGIPDRFSGSGSGTDFTLTISRLEPEDFAVYYCQHYPYPPSFTFGQGTKVEIK
notes: IgG in the assay
B3: L3.PY/L1.AH/P6E01 (antibody, V domains shown)
VH: EVQLLESGGGLVQPGGSLRLSCAASGFTFGSYAMTWVRQAPGKGLEWVSAISGSGGNTFYADSVKGRFTISRDNSKNTLYLQMNSLRAEDTAVYYCARVSPIASGMDYWGQGTLVTVSS
VL: EIVLTQSPGTLSLSPGERATLSCRASQSVSAHYLAWYQQKPGQAPRLLIYGASSRATGIPDRFSGSGSGTDFTLTISRLEPEDFAVYYCQHYPYPPSFTFGQGTKVEIK
notes: IgG in the assay
B4: L3.PY/L1.PH/P6E01 (antibody, V domains shown)
VH: EVQLLESGGGLVQPGGSLRLSCAASGFTFGSYAMTWVRQAPGKGLEWVSAISGSGGNTFYADSVKGRFTISRDNSKNTLYLQMNSLRAEDTAVYYCARVSPIASGMDYWGQGTLVTVSS
VL: EIVLTQSPGTLSLSPGERATLSCRASQSVSPHYLAWYQQKPGQAPRLLIYGASSRATGIPDRFSGSGSGTDFTLTISRLEPEDFAVYYCQHYPYPPSFTFGQGTKVEIK
notes: IgG in the assay
B5: L3.PY/L1.FF/P6E01 (antibody, V domains shown)
VH: EVQLLESGGGLVQPGGSLRLSCAASGFTFGSYAMTWVRQAPGKGLEWVSAISGSGGNTFYADSVKGRFTISRDNSKNTLYLQMNSLRAEDTAVYYCARVSPIASGMDYWGQGTLVTVSS
VL: EIVLTQSPGTLSLSPGERATLSCRASQSVSSFFLAWYQQKPGQAPRLLIYGASSRATGIPDRFSGSGSGTDFTLTISRLEPEDFAVYYCQHYPYPPSFTFGQGTKVEIK
notes: IgG in the assay
B6: L3.PY/L1.AH/H2.YQ (antibody, V domains shown)
VH: EVQLLESGGGLVQPGGSLRLSCAASGFTFGSYAMTWVRQAPGKGLEWVSAISYQGGNTFYADSVKGRFTISRDNSKNTLYLQMNSLRAEDTAVYYCARVSPIASGMDYWGQGTLVTVSS
VL: EIVLTQSPGTLSLSPGERATLSCRASQSVSAHYLAWYQQKPGQAPRLLIYGASSRATGIPDRFSGSGSGTDFTLTISRLEPEDFAVYYCQHYPYPPSFTFGQGTKVEIK
notes: IgG in the assay
B7: L3.PY/L1.AH/H3.AQ (antibody, V domains shown)
VH: EVQLLESGGGLVQPGGSLRLSCAASGFTFGSYAMTWVRQAPGKGLEWVSAISGSGGNTFYADSVKGRFTISRDNSKNTLYLQMNSLRAEDTAVYYCARVSPIAAQMDYWGQGTLVTVSS
VL: EIVLTQSPGTLSLSPGERATLSCRASQSVSAHYLAWYQQKPGQAPRLLIYGASSRATGIPDRFSGSGSGTDFTLTISRLEPEDFAVYYCQHYPYPPSFTFGQGTKVEIK
notes: IgG in the assay
B8: L3.PY/L1.AH/H3.YA (antibody, V domains shown)
VH: EVQLLESGGGLVQPGGSLRLSCAASGFTFGSYAMTWVRQAPGKGLEWVSAISGSGGNTFYADSVKGRFTISRDNSKNTLYLQMNSLRAEDTAVYYCARVSPIYAGMDYWGQGTLVTVSS
VL: EIVLTQSPGTLSLSPGERATLSCRASQSVSAHYLAWYQQKPGQAPRLLIYGASSRATGIPDRFSGSGSGTDFTLTISRLEPEDFAVYYCQHYPYPPSFTFGQGTKVEIK
notes: IgG in the assay

How the values were obtained:
cyBCMA = molecular target: T2, cyBCMA (cynomolgus, UniProt A0A2K5UD97 1-53); experiment: SPR, immobilised IgG, 37° C
T2 construct: Soluble analyte in SPR; construct not described; also called cyno BCMA

human BCMA = molecular target: T1, human BCMA; experiment: SPR, immobilised IgG, 37° C

T2 sequence (A0A2K5UD97 entry or part of it): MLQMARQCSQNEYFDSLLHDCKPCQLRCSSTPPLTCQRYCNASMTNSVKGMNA

Binder	T½ (cyBCMA) [min]	T½ (human BCMA) [min]
B1	2.35	6.39
B2	3.25	6.7
B3	2.02	9.19
B4	1.46	12.7
B5	1.96	8.18
B6	2.68	6
B7	2.9	5.85
B8	2.2	7.73
